How the values were obtained:
Test in all cases: ITC; VP-ITC, 25 °C; UBA5 peptides (~400 µM) titrated into 20–25 µM binding partner; 25 mM HEPES pH 7.5, 100 mM NaCl; one-site model; a single profile for each interaction
Settings in all cases: both partners purified
[1] = target: T1, Full length UFM1, residues 2–83 (UniProt P61960 2-83)
T1 construct: N-terminal cloning artefact left after TEV cleavage (vector pET39_Ub19); UFM1 (ubiquitin fold modifier 1), residues 2–83 (processed form ending at Gly83); also called Ubiquitin fold modifier 1; source: E. coli T7 Express, purified (His Trap IMAC, TEV cleavage, reverse IMAC, Superdex gel filtration); not shown: modified ubiquitin tag (Ub19), N-terminal, cleaved
T1 sequence (P61960 other isoform, or with tags, fused parts or gaps): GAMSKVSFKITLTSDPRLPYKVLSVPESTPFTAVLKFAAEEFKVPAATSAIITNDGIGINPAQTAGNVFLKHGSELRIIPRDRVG

[2] = target: T2, GABARAPL2, residues 3–116 (UniProt P60520 3-116)
T2 construct: N-terminal cloning artefact left after TEV cleavage (vector pET39_Ub19); source: E. coli T7 Express, purified (His Trap IMAC, TEV cleavage, reverse IMAC, Superdex gel filtration); not shown: modified ubiquitin tag (Ub19), N-terminal, cleaved
T2 sequence (P60520 other isoform, or with tags, fused parts or gaps): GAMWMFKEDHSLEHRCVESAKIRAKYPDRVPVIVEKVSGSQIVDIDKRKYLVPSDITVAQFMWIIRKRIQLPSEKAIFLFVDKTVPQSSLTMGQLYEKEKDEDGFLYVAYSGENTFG

[3] = target: LC3B, residues 5–120 (UniProt Q9GZQ8 5-120)

Measured: Kd

B1: UBA5 C-terminal region R2, residues 359–376 (peptide)
chain: GAMGPVPDLPEGITVAYTIPK
notes: N-terminal cloning artefact left after TEV cleavage (vector pET39_Ub19); also called isolated R2 peptide; source: E. coli T7 Express, purified (His Trap IMAC, TEV cleavage, reverse IMAC, Superdex gel filtration); not shown: modified ubiquitin tag (Ub19), N-terminal, cleaved
> 100 µM: all assays above

Reference: article PMC8304084, “A Concerted Action of UBA5 C-Terminal Unstructured Regions Is Important for Transfer of Activated UFM1 to UFC1” (International Journal of Molecular Sciences, 2021)
